Source: patent publication US20250387450A1 (AIKIUM, published 2025)
Positions count from the first letter of the chain named. One block for each binder: values may come before it.

What was measured:
[1] = target: T1, KAAG1 disordered region peptide, PGAAAAHLPRWPPPQLAASRREA (biotin label); test: ELISA: scaffold coated on plate, biotinylated peptide titrated, streptavidin-HRP fluorescence
T1 construct: also called KAAG1 Peptide
T1 peptide: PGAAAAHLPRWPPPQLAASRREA
Experimental: (§1) Binder proteins were coated on the surface of a high binding capacity 96 well plate by incubating 100 μL of protein at 5 μg/mL in a coating solution (10 mM Tris pH 8.8, 50 mM NaCl), overnight at 4 C. The next morning, the coating solution was aspirated out and wells were washed once with 300 μL ELISA wash buffer (1×PBS, 0.05% Tween-20) and solution was aspirated out. The wells were blocked with 200 μL of a blocking buffer (1×PBS, 0.05% Tween-20, 3% BSA) at room temperature for 1 hour. After one hour, the blocking solution was aspirated out and 100 μL of biotinylated polypeptide in a binding buffer (1×PBS, 0.05% Tween-20, 0.5% BSA) at various concentrations was added to the appropriate well and incubated for 20 minutes. Peptide solution was aspirated out after 20 minutes and wells were washed 5 times with 300 μL of ELISA wash buffer. To detect the biotinylated peptide, 100 μL of streptavidin-HRP (50 ng/ml) was added to each well and incubated for 1 hour. The wells were subsequently washed 5 times with 300 μL of ELISA wash buffer. 100 μL of QuantaBlu Fluorogenic Peroxidase substrate solution was added to each well, incubated for 30 minutes and reaction stopped by adding 100 μL of stop solution. Fluorescent signal from each well was measured using a Biotek Cytation5 plate reader by exciting the fluorophore at […] and measuring emission at 420 nm. Fluorescent signals were plotted as a function of polypeptide concentration.

[2] = target: T2, KCNA6 short linear epitope peptide, QQQEQQPASGGGGQNGQQAMS (biotin label); test: as above
T2 construct: also called KCNA6 Peptide
T2 peptide: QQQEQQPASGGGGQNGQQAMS
Experimental: as §1

[3] = target: T3, TNFRSF13B disordered region peptide, LPPELRRQRSGEVENNSDNSGRYQ (biotin label); test: as above
T3 construct: also called TNFRSF13B Peptide
T3 peptide: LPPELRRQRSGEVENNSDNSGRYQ
Experimental: as §1

[4] = target: T4, CD40LG short linear epitope peptide, NKEETKKENSFEMQKGDQNPQIAAH (biotin label); test: as above
T4 construct: also called CD40LG Peptide
T4 peptide: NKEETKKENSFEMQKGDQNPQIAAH
Experimental: as §1

[5] = target: T5, GMERKFMSLQPSISVSEMEPNGTFSNNNSRNCTIENFKREFFP (biotinylated, position not given); test: as above
T5 construct: also called CYSLTR2 (longer peptide of the disordered region)
T5 peptide: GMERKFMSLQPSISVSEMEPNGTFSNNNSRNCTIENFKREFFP
Experimental: as §1

[6] = target: T6, CYSLTR2 short linear epitope peptide, SISVSEMEPNGTFSNNNSRNC (N-terminal biotin); test: as above
T6 peptide: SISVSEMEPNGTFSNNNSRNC
Experimental: as §1

[7] = target: T7, CD74 disordered region peptide (CLIP), PPKPVSKMRMATPLLMQALPMGALP (biotin label); test: modified sandwich ELISA, fluorescence grade by the table's key
T7 construct: also called CD74 Peptide
T7 peptide: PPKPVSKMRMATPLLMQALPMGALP
Experimental: as §1

[8] = target: T8, CYSLTR2 N-terminal disordered region peptide, MERKFMSLQPSISVSEMEPNGTFSNNNSRNCTIENFKREFFP (biotin label); test: as above
T8 construct: also called CysLT2; CysLT2r
T8 peptide: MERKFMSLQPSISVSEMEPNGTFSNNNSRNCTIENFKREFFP
Experimental: as §1

[9] = target: T9, Urotensin-2 receptor N-terminal peptide, MALTPESPSSFPGLAATGSSVPEPPGGPNATLNSSWASPTEPSSLEDLVATGTI (biotin label); test: modified sandwich ELISA, grade by the table's key
T9 construct: also called Urotensin IIR; GPCR2 (Urotensin II)
T9 peptide: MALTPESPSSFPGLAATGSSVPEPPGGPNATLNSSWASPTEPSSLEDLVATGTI
Experimental: as §1

[10] = target: T1, KAAG1 disordered region peptide, …; test: modified sandwich ELISA, grade by the table's key
Experimental: as §1

[11] = target: T3, TNFRSF13B disordered region peptide, …; test: modified sandwich ELISA, grade by the table's key
Experimental: as §1

binding result [1]: no binding (tested: 10000 nM)
binding result [2]: no binding (tested: 10000 nM)
binding result [3]: no binding (tested: 10000 nM)
binding result [4]: no binding (tested: 10000 nM)
binding result [5]: binds
binding result [6]: binds
B1: engineered scaffold protein S193 (designed binder)
chain: MGSKARMATGALAQAGGSGGSMIKEEHVINQAEYYLNPDQSGEFKFDFDGDEIFHVDMAKKETVWRLEEFGRFASFEAQGALAHIAVDKANLEIMTKRSNYTPMGDTRPRFLWQLKYECHFFNGTERVRLNERCIYNQEESVRFDSDVGEYRAVTELGRPDAEQWNSQKDHLEQRRAAVDTKCRHNYGVGESFTVQGGSHHHHHH

fluorescent signal [7]: > 400000 fluorescentsignal
fluorescent signal [8]: 100000 to 250000 fluorescentsignal
B2: engineered scaffold protein S098 (designed binder)
chain: PENYLFQGRQECNGTQFLERYIYNREEFVRFDEFRAVGRPDEEYWNSQKDILEEERAVPDRMCRHNYELGGPMTLQRRVQPRVNIKADHVSTYAAFVQRPFMFEFDEDEMFYVDLHLEEFGQAFSFEAQGGLANIAILNNNLNTRSNHTQATNDPPHHHHHHLE
binding result [9]: no binding (tested: <5000 (fluorescence, key))
binding result [10]: no binding (tested: <5000 (fluorescence, key))
binding result [11]: no binding (tested: <5000 (fluorescence, key))

fluorescent signal [7]: 100000 to 250000 fluorescentsignal
B3: engineered scaffold protein S134 (designed binder)
chain: MVKYHHHHHHGGSENLYFQGMGDTRPRFLWQPKRECHFFNGTERVRFLDRYFYNQEESVRFDSDVGEFRAVTELGRPDAEYWNSQKDILEQARAAVDTYCRHNYGVVESFTVQRRVIKEEHVIIQAEFYLNPDQSGEFMFDFDGDEIFHVDMAKKETVWRLEEFGRFASFEAQGALANIAVDKANLEIMTKRSNYTPITN
binding result [10]: no binding (tested: <5000 (fluorescence, key))

fluorescent signal [7]: > 400000 fluorescentsignal
fluorescent signal [8]: 100000 to 250000 fluorescentsignal
B4: engineered scaffold protein S077 (designed binder)
chain: KPVSKMRMATPLLMQALPMASGGGGSGGGGDTRPRFLWQLKFECHFFNGTERVRLLERCIYNQEESVRFDSDVGEYRAVTELGRPDAEYWNSQKDLLEQRRAAVDTYCRHNYGVGESFTVQRRSGGGIKEEHVIIQAEFYLNPDQSGEFMFDFDGDEIFHVDMAKKETVWRLEEFGRFASFEAQGALANIAVDKANLEIMTKRSNYTGGSHHHHHHLE
binding result [9]: no binding (tested: <5000 (fluorescence, key))
binding result [10]: no binding (tested: <5000 (fluorescence, key))
binding result [11]: no binding (tested: <5000 (fluorescence, key))

binding result [5]: binds
binding result [6]: binds
B5: S189 (designed binder)
single chain: MGIKEEHVINQAEYCLNPDQSGEFKFDFDGDEIFHVDMAKKETVWRLEEFGRFASFEAQGALAHIAVDCANLEIMTKRSNYTPMGDTRPRFLWQLKYECHFFNGTERVRLNERCIYNQEESVRFDSDVGEYRAVTELGRPDAEQWNSQKDHLEQRRAAVDTKCRHNYGVGESFTVQGGSHHHHHH
notes: also called engineered scaffold protein S189

fluorescent signal [7]: > 400000 fluorescentsignal
B6: engineered scaffold protein S143 (designed binder)
chain: MGDTRPRFLWQLKFECHFFNGTERVRLLERCIYNQEESVRFDSDVGEYRAVTELGRPDAEYWNSQKDLLEQRRAAVDTYCRHNYGVGESFTVQRRVIKEEHVIIQAEFYLNPDQSGEFMFDFDGDEIFHVDMAKKETVWRLEEFGRFASFEAQGALANIAVDKANLEIMTKRSNYTPTINGGSHHHHHH
binding result [10]: no binding (tested: <5000 (fluorescence, key))

binding result [5]: binds
binding result [6]: binds
B7: S180 (designed binder)
single chain: MKEEHVIIQAEFYLNPDQSGEFMFDFDGDEIFHVDMAKKETVWRLEEFGRFASFEAQGALANIAVDKANLEIMTKRSNYTPITNTRPRFLWQPKRECHFFNGTERVRFLDRYFYNQEESVRFDSDVGEFRAVTELGRPDAEYWNSQKDILEQARAAVDTYCRHNYGVVESFTVQRRVQGGSHHHHHHLE
notes: also called engineered scaffold protein S180

fluorescent signal [7]: > 400000 fluorescentsignal
B8: engineered scaffold protein S058 (designed binder)
chain: GSHSMRYNYTSVSRPGRGEPRFISEGYVDDTQFVRFDSDAASPREEPRAPWIEQEGPEYWDRNTQIYKAQAQTDRESLRNLRGYYNQSEAGSHTLQSMYGCDVGPDGRLLRGHDQYYYDGKDYISLNEDLRSWTAADTAAQITQRKWEAAREAEQRRAYLEGECVEWLRRYLENGKDKLERADGGSHHHHHHLE
binding result [9]: no binding (tested: <5000 (fluorescence, key))

fluorescent signal [7]: > 400000 fluorescentsignal
binding result [1]: no binding (tested: 10000 nM)
B9: engineered scaffold protein S065 (designed binder)
chain: B8 chain with N8F, E25V, Y59A, Y117A, Y123S, S125A, K146Y, W167H, Y171V
binding result [9]: no binding (tested: <5000 (fluorescence, key))
binding result [11]: no binding (tested: <5000 (fluorescence, key))

fluorescent signal [7]: > 400000 fluorescentsignal
fluorescent signal [8]: 50000 to 100000 fluorescentsignal
B10: engineered scaffold protein S078 (designed binder)
chain: GDTRPRFLWQLKFECHFFNGTERVRLLERCIYNQEESVRFDSDVGEYRAVTELGRPDAEYWNSQKDLLEQRRAAVDTYCRHNYGVGESFTVQRRSGGGIKEEHVIIQAEFYLNPDQSGEFMFDFDGDEIFHVDMAKKETVWRLEEFGRFASFEAQGALANIAVDKANLEIMTKRSNYTGGSHHHHHHLE
binding result [9]: no binding (tested: <5000 (fluorescence, key))
binding result [10]: no binding (tested: <5000 (fluorescence, key))
binding result [11]: no binding (tested: <5000 (fluorescence, key))

fluorescent signal [7]: > 400000 fluorescentsignal
B11: engineered scaffold protein S068 (designed binder)
chain: GDTRPRFLWQLKFECHFFNGTERVRLLERCIYNQEESVRFDSDVGEYRAVTELGRPDAEYWNSQKDLLEQRRAAVDTYCRHNYGVGESFTVQRRVEPKVTVYPSKTQPLQHHNLLVCSVSGFYPGSIEVRWFRNGQEEKAGVVSTGLIQNGDWTFQTLVMLETVPRSGEVYTCQVEHPSVTSPLTVEWRASGGGGSGGGGSGGGGIKEEHVIIQAEFYLNPDQSGEFMFDFDGDEIFHVDMAKKETVWRLEEFGRFASFEAQGALANIAVDKANLEIMTKRSNYTPITNVPPEVTVLTNSPVELREPNVLICFIDKFTPPVVNVTWLRNGKPVTTGVSETVFLPREDHLFRKFHYLPFLPSTEDVYDCRVEHWGLDEPLLKHWEFDAPSGGSHHHHHHLE
binding result [9]: no binding (tested: <5000 (fluorescence, key))
binding result [10]: no binding (tested: <5000 (fluorescence, key))
binding result [11]: no binding (tested: <5000 (fluorescence, key))
